Laboratory results: US20250302982A1 (Genmab, published 2025)

Assays:
Tissue Factor (TF) [1] = biological target: T1, Tissue Factor (TF) (human, UniProt P13726 33-295); assay: cell-based or functional assay
Tissue Factor (TF) [2] = biological target: T1, Tissue Factor (TF); assay: flow cytometry on HNSCC cell lines, 2 µg/ml tisotumab, PE-conjugated goat (Fab')2 anti-human IgG secondary

Row | binding result (Tissue Factor (TF) [2]) | Binder | IC50 of cell killing (percent viable cells, Cell Titer-Blue, day 5); HNSCC cell lines with intermediate and high TF expression (Tissue Factor (TF) [1]) [ng/mL] | IC50 of cell killing (percent viable cells, Cell Titer-Blue, day 5); primary keratinocytes and VU-SCC-OE (low TF expression) (Tissue Factor (TF) [1]) [µg/mL]
1 | – | tisotumab vedotin (antibody, IgG1, V domains shown, MC-vc-PAB-MMAE (vcMMAE) attached to sulphydryl residues of the antibody; positions not given) VH: EVQLLESGGGLVQPGGSLRLSCAASGFTFSNYAMSWVRQAPGKGLEWVSSISGSGDYTYYTDSVKGRFTISRDNSKNTLYLQMNSLRAEDTAVYYCARSPWGYYLDSWGQGTLVTVSS VL: DIQMTQSPPSLSASAGDRVTITCRASQGISSRLAWYQQKPEKAPKSLIYAASSLQSGVPSRFSGSGSGTDFTLTISSLQPEDFATYYCQQYNSYPYTFGQGTKLEIK | 2.5 to 7 | > 0.025
2 | binds | tisotumab (antibody, IgG1, V domains shown, Tested as IgG1 (IgG1-1015-011, Genmab); also called antibody 011; IgG1-1015-011) VH: EVQLLESGGGLVQPGGSLRLSCAASGFTFSNYAMSWVRQAPGKGLEWVSSISGSGDYTYYTDSVKGRFTISRDNSKNTLYLQMNSLRAEDTAVYYCARSPWGYYLDSWGQGTLVTVSS VL: DIQMTQSPPSLSASAGDRVTITCRASQGISSRLAWYQQKPEKAPKSLIYAASSLQSGVPSRFSGSGSGTDFTLTISSLQPEDFATYYCQQYNSYPYTFGQGTKLEIK | – | –
